The values that follow come from PMC7036032 (Molecular cell, 2019).

Assay [1] deals with T1, human CPSF160-WDR33 (1-572) complex (human, UniProt Q10570 1-1443; Q9C0J8 1-572). The experiment in a line: SEC. (SEC sorts molecules by how far they enter the pores of the column.)
The target of assay [2] is T1, human CPSF160-WDR33 (1-572) complex. The experiment in a line: cryo-EM structure.
Assay [3] has the same target. Nature of the assay: pull-down.

T1 sequence (Q10570 whole entry, chain 1 of 2): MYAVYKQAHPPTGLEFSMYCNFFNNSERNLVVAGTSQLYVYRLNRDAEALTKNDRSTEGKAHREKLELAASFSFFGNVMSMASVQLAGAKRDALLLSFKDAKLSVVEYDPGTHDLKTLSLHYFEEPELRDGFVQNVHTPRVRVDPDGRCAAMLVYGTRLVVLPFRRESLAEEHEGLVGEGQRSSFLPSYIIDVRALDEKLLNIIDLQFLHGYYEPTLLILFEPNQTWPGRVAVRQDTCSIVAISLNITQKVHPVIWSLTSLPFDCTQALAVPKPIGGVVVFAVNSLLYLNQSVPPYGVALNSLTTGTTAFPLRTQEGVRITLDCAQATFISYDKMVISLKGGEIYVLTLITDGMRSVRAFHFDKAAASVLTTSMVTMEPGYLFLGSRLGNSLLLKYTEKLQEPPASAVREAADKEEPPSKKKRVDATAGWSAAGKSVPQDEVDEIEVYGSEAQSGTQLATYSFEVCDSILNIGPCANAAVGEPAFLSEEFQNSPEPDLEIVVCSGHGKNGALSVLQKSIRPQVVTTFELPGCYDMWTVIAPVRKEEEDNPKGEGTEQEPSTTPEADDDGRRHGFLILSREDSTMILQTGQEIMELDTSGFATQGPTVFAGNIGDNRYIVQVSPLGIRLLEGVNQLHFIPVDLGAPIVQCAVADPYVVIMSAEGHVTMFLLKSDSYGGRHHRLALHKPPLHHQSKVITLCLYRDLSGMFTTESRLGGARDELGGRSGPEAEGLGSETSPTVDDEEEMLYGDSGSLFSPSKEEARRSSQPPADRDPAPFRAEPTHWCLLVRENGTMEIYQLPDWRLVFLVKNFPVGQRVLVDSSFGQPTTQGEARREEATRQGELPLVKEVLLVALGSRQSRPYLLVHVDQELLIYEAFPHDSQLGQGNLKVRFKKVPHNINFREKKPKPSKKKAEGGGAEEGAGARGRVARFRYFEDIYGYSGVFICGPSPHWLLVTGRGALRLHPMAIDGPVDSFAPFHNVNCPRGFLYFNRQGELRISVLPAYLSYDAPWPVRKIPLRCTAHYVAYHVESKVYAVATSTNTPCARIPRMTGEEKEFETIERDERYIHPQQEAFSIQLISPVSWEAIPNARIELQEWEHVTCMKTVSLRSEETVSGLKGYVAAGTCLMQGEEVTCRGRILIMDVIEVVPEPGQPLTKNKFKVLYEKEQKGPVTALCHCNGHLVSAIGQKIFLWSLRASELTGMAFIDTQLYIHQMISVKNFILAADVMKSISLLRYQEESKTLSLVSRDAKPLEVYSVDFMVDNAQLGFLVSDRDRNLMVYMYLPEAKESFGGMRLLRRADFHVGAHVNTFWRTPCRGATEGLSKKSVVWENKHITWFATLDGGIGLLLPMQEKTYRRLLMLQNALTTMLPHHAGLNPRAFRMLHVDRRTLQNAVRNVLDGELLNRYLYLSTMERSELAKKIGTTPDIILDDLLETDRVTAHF
T1 sequence (Q9C0J8 1-572, chain 2 of 2): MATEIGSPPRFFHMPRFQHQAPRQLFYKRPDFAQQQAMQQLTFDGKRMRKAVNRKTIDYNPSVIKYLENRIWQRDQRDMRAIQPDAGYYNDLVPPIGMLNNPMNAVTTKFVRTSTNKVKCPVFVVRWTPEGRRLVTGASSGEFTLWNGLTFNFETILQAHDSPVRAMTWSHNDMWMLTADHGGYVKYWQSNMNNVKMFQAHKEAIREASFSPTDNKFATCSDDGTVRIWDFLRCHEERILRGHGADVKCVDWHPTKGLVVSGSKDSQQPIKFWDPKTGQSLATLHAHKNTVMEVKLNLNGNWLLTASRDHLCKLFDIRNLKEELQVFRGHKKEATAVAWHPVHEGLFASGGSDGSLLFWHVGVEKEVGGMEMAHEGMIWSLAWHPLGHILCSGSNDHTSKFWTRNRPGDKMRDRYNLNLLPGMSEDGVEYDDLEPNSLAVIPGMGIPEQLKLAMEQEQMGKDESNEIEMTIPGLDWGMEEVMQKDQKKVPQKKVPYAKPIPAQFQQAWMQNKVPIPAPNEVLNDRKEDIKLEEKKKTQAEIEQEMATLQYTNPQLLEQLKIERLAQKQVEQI

B1: human CPSF30-Fip1(1-243) complex (complex)
chain 1: MQEIIASVDHIKFDLEIAVEQQLGAQPLPFPGMDKSGAAVCEFFLKAACGKGGMCPFRHISGEKTVVCKHWLRGLCKKGDQCEFLHEYDMTKMPECYFYSKFGECSNKECPFLHIDPESKIKDCPWYDRGFCKHGPLCRHRHTRRVICVNYLVGFCPEGPSCKFMHPRFELPMGTTEQPPLPQQTQPPAKQRTPQVIGVMQSQNSSAGNRGPRPLEQVTCYKCGEKGHYANRCTKGHLAFLSGQ
chain 2: MSAGEVERLVSELSGGTGGDEEEEWLYGGPWDVHVHSDLAKDLDENEVERPEEENASANPPSGIEDETAENGVPKPKVTETEDDSDSDSDDDEDDVHVTIGDIKTGAPQYGSYGTAPVNLNIKTGGRVYGTTGTKVKGVDLDAPGSINGVPLLEVDLDSFEDKPWRKPGADLSDYFNYGFNEDTWKAYCEKQKRIRMGLEVIPVTSTTNKITAEDCTMEVTPGAEIQDGRFNLFKVQQGRTGN
On to B1, for which the binding result in assay [1] was “binds”.

B2: CPSF30 (isoform 2) (natural protein, human, UniProt O95639-2 1-244, looked up)
chain: MQEIIASVDHIKFDLEIAVEQQLGAQPLPFPGMDKSGAAVCEFFLKAACGKGGMCPFRHISGEKTVVCKHWLRGLCKKGDQCEFLHEYDMTKMPECYFYSKFGECSNKECPFLHIDPESKIKDCPWYDRGFCKHGPLCRHRHTRRVICVNYLVGFCPEGPSCKFMHPRFELPMGTTEQPPLPQQTQPPAKQRTPQVIGVMQSQNSSAGNRGPRPLEQVTCYKCGEKGHYANRCTKGHLAFLSGQ
For B2, the binding result in assay [2] is listed as “binds”.

B3: MBP-CPSF100 (full length) (natural protein, human, UniProt Q9P2I0 1-782, looked up)
chain: MTSIIKLTTLSGVQEESALCYLLQVDEFRFLLDCGWDEHFSMDIIDSLRKHVHQIDAVLLSHPDPLHLGALPYAVGKLGLNCAIYATIPVYKMGQMFMYDLYQSRHNTEDFTLFTLDDVDAAFDKIQQLKFSQIVNLKGKGHGLSITPLPAGHMIGGTIWKIVKDGEEEIVYAVDFNHKREIHLNGCSLEMLSRPSLLITDSFNATYVQPRRKQRDEQLLTNVLETLRGDGNVLIAVDTAGRVLELAQLLDQIWRTKDAGLGVYSLALLNNVSYNVVEFSKSQVEWMSDKLMRCFEDKRNNPFQFRHLSLCHGLSDLARVPSPKVVLASQPDLECGFSRDLFIQWCQDPKNSIILTYRTTPGTLARFLIDNPSEKITEIELRKRVKLEGKELEEYLEKEKLKKEAAKKLEQSKEADIDSSDESDIEEDIDQPSAHKTKHDLMMKGEGSRKGSFFKQAKKSYPMFPAPEERIKWDEYGEIIKPEDFLVPELQATEEEKSKLESGLTNGDEPMDQDLSDVPTKCISTTESIEIKARVTYIDYEGRSDGDSIKKIINQMKPRQLIIVHGPPEASQDLAECCRAFGGKDIKVYMPKLHETVDATSETHIYQVRLKDSLVSSLQFCKAKDAELAWIDGVLDMRVSKVDTGVILEEGELKDDGEDSEMQVEAPSDSSVIAQQKAMKSLFGDDEKETGEESEIIPTLEPLPPHEVPGHQSVFMNEPRLSDFKQVLLREGIQAEFVGGVLVCNNQVAVRRTETGRIGLEGCLCQDFYRIRDLLYEQYAIV
Take B3: in assay [3], the binding result is recorded as “binds”. Consider SYPMFPAPEERIKWDEYGEIIKPEDFL (domain or fragment, human, UniProt Q9P2I0 460-486, looked up) [MBP-CPSF100 (460-486)], for which, in assay [3], the binding result is on record as “binds”.
